Results on 21 variants are retold here after the RNAGym collection of RNA variant scans (doi:10.7554/elife.90254).

To fix the notation:
B1: OR4K15 (parent)
chain: GUUAACGGUCAUAGGCCAUGGAAACUAGGAGCACCAUUUCGCUGCCAGUGAAGAAAUGAACAAAGAAAAUCUGGGCCAGGCAGGCAUCAAAAGAAAUAGUCUUGCGCUCAACCAGAAAGUCUGUAAUCAUUUUAAGGGUA

The data set covers variants of B1. The data set is described as follows: self-cleavage, relative activity (ratio to wild type); higher = more cleavage; in vitro, sequencing; the parent is a self-cleaving ribozyme.
For the variant GUUAACGGUCAUAGGCCAUGGAAACUAGGAGCACCAUUUCGCUGCCAGUGAAGAAAUGAACAAAGAAAAUCUGGGCCAGGCAGGCAUCAAAAGAAAUAGUCUUGCGCUCAACCUGAAAGACUGUAAUCAUUUUAAGGGUA, the self-cleavage was 0.05.

Regarding GUUAACGGUCAUAGGCCAUGGAAACUAGGAGCUCCAUUUCGCUGCCAGUGAAGAAACGAACAAAGAAAAUCUGGGCCAGGCAGGCAUCAAAAGAAAUAGUCUUGCGCUCAACCAGAAAGUCUGUAAUCAUUUUAAGGGUA, the self-cleavage was determined as 0.68.

Take GUUAACGGUCAUAGGCCAUGGAAACUAGGCGCACCAUUUCGCUGCCAGUGAAGAAAUGAACAAAGAAAAUCUGGGCCAGGCAGGCAUCAAAAGAAAUAGUCUUGCGCUCAACCAGAAAGUCUGUAAUCACUUUAAGGGUA: the self-cleavage was found to be 1.21.

With GUUAACGGUCGUAGGCCAUGGAAACUAGGAGCACCAUUUCGCUGCCAGUGAAGAAAUGAACAAAGAAAAUCUGGGCCAGGCAGGCAUCAAAAGAAAUAGUCAUGCGCUCAACCAGAAAGUCUGUAAUCAUUUUAAGGGUA, the self-cleavage was 0.58.

On to GUUACCGGUCAUAGGCCAUGGAAACUAGGAGCACCAUUUCGCUGCCAGUGAAGAAAUGAACAAAGAAAAUCUGGGCCAGGCAGGCAUCAAAAGAAAUAGUCUUGCGCUCAACCAGAAAGUCUGUAGUCAUUUUAAGGGUA, for which the self-cleavage was 1.54.

GUUAACGGUCAUAGGCCAUGGAAACUAGGAGCACCAUUUCGCUGCCAGUGAAGAAAUGAACAAGGAAAAUCUGGGCCGGGCAGGCAUCAAAAGAAAUAGUCUUGCGCUCAACCAGAAAGUCUGUAAUCAUUUUAAGGGUA: the self-cleavage worked out at 0.28.

Regarding GUUAACGGUCAUAGGCCAUGGAAACUAGGAGUACCAUUUCGCUGCCAGUGAGGAAAUGAACAAAGAAAAUCUGGGCCAGGCAGGCAUCAAAAGAAAUAGUCUUGCGCUCAACCAGAAAGUCUGUAAUCAUUUUAAGGGUA, the self-cleavage worked out at 1.73.

Take GAUAACGGUCAUAGGCCAUGGAAACUAGGAGCACCAUUUCGCUGCCAGUGAAGAAAUGAACAAAGAAAAUCUGGGCCAGGCAGGCAUCAAAAGAAAUAGUCUUGCGCUCAACCAGAAAGUCUGUAAUCGUUUUAAGGGUA: the self-cleavage was found to be 0.66.

Regarding GUUAACGGUCAUAGGCCAUGGAAACUAGGAGCACCAUUUCGCUGCCAGUGAAGAAAUGAACAAAGAAAAUCAGGGCCAGGCAGGCAUCAAAAGAAAUAGUCUUGCGCUCAACCAGAAAGUCUGUAAUCAUUUUAAGGGAA, the self-cleavage is 0.24.

Consider GUUAACGGUCAUAGGCCAUGGAAACUAGGAGCACCAUUUCGCUGCCAGUGAAGAAAUGAACUAAGAAAAUCUGGGCCUGGCAGGCAUCAAAAGAAAUAGUCUUGCGCUCAACCAGAAAGUCUGUAAUCAUUUUAAGGGUA, for which the self-cleavage was 0.33.

On to GUUAACGGUCAUAGGCCAUGGAAACUAGGAGCACCAUUUCGCUGCCAGUGAAGAAGUGAACAAAGAAAAUCUGGGUCAGGCAGGCAUCAAAAGAAAUAGUCUUGCGCUCAACCAGAAAGUCUGUAAUCAUUUUAAGGGUA, for which the self-cleavage came out at 0.14.

With GUUAACGGUCAUAGGCCAUGGAAACUAGGAGCACCAUUUCGCUGCCAGUGAAGAAAUGAACAAAGAAAAUCUGGGCCAGGCAGGCGUCAAAAGAAAUAGUCUUGCGCUCAACCAGAUAGUCUGUAAUCAUUUUAAGGGUA, the self-cleavage was 1.45.

For the variant GUUAACGGUCAUAGGCCGUGGAAACUAGGAGCACCAUUUCGCUGCCAGUGAAGAAAUGAACAAAGAAAAUCUGGGCCAGGCAGGCAUCAAAAGAAAUAGUCUUGCGCUCAACCAGAAAGUCUGUAAACAUUUUAAGGGUA, the self-cleavage was 1.64.

In the case of GUUAACAGUCAUUGGCCAUGGAAACUAGGAGCACCAUUUCGCUGCCAGUGAAGAAAUGAACAAAGAAAAUCUGGGCCAGGCAGGCAUCAAAAGAAAUAGUCUUGCGCUCAACCAGAAAGUCUGUAAUCAUUUUAAGGGUA, the self-cleavage turned out to be 1.19.

On to GUUAACGGUCAUAGGCCAUGGAAACUAGGAGCACCACUUCGCUGCCAGUGAAGAAAUGAACAAAGAAAAUCUGGGCCAGGCAGGCAUCAAAAGAAAUAGUCUUGCGCUCAACCGGAAAGUCUGUAAUCAUUUUAAGGGUA, for which the self-cleavage was found to be 0.34.

On to GUUAACGGUCAUAGGCCAUGGAAACUAGGAGCACCAUUUCGCUGCCAGUGAAGAAAUGAACAAAGAAAAUCCGGGCCAGGCAGGCAUCAAAAGAAAUAGUCCUGCGCUCAACCAGAAAGUCUGUAAUCAUUUUAAGGGUA, for which the self-cleavage was determined as 0.36.

As to GUUAACGGUCAUAGGCCUUGGAAACUAGGAGCACCAUUUCGCUGCCAGUGAAGAAAUGAACAAAGAAAAUCUGGGCCAGGCAGGCAUCAAAAGAACUAGUCUUGCGCUCAACCAGAAAGUCUGUAAUCAUUUUAAGGGUA, the self-cleavage was found to be 1.02.

Consider GUUAACGGUCAUAGGCCAUGGAAACUAGGAGCACCAUUUCGCUGCCAGUGAAGAAAUGAACAAAGAAAAUUUGGGCCAGGCAGGCAACAAAAGAAAUAGUCUUGCGCUCAACCAGAAAGUCUGUAAUCAUUUUAAGGGUA, for which the self-cleavage was 0.61.

For the variant GUUAACGGUCAUAGGCCAUGGAAACUAGGAGCACCAUUUCGCUGCCAGUGAAGGAAUGAACAAAGAAAAUCUGGGCCAGGCAGGCAUCAAAAGAAAUAGUCUUGCGCUCAACCAGAAGGUCUGUAAUCAUUUUAAGGGUA, the self-cleavage worked out at 1.08.

In the case of GUUAACGGUCAUAGGCCAUGGAAACUAGGAGCACCAUUUCGCUGCCGGUGAAGAAAUGAACAAAGAAAAUCUGGGCCAGGCAGGCAUCGAAAGAAAUAGUCUUGCGCUCAACCAGAAAGUCUGUAAUCAUUUUAAGGGUA, the self-cleavage turned out to be 1.1.

With GUUAACGGUCAUAGGCCAUGGAAACUAGGAGCACCAUUUCGCUGCCAGUGAAGAAAUGAACAAAGAAAAUCUGGGCCAGGCAGGCAUCAAAAGAAAUGGUCUUGCGCUCAACCAGAAAGUCUGAAAUCAUUUUAAGGGUA, the self-cleavage worked out at 0.07.
